From paper PMC13544220, “Glycemic and bodyweight effects of GIPR coding variation reflect differences in surface expression and intrinsic functional impairment” (Science Advances, 2026)

Key:
Type in all cases: cell-based, human
[1] = test system: wild-type and variant SNAP-GIPR; test: Single-concentration GIP cAMP response by HTRF in AD293 cells; details: Fig S3F, HTRF, mean;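 further: ratio to experiment-wide average response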
Procedure: (§1) All variants were tested in parallel on each occasion to control for transfection efficiency differences between experiments.

[2] = test system: wild-type and variant SNAP-GIPR; test: Single-concentration GIP cAMP response by HTRF in INS-1 cells; details: Fig S3E, mean
Procedure: as §1

[3] = test system: wild-type and variant SNAP-GIPR; test: Constitutive and agonist-mediated internalization, reversible SNAP-tag labelling, INS-1 cells; design: key to Internalisation, GIP-only / Internalisation, Vehicle / Internalisation, +GIP: % internalization: residual fluorescence after Mesna vs pre-Mesna; details: Mean
Procedure: (§2) Twenty-four hours before the experiment, AD293 or INS-1 cells were reverse transfected with GIPR variant or wild-type plasmids using Lipofectamine 2000 in 96-well, clear-bottom, black microplates precoated with poly-D-lysine. All variants were tested in parallel on each occasion to control for transfection efficiency differences between experiments. […] Media were then removed, cells washed with PBS and then placed in TNE buffer (pH 8.6) for imaging. […] After 10 min, the well was reimaged again to detect remaining fluorescence from internalized GIPR. Images were analyzed as in the “Assessment of surface GIPR expression by SNAP-tag labeling in cell lines” section, with the residual specific fluorescence after Mesna treatment expressed relative to the pre-Mesna value to establish percentage internalization.

[4] = test system: wild-type and variant SNAP-GIPR; test: Constitutive and agonist-mediated internalization, reversible SNAP-tag labelling, AD293 cells; design: key to Internalisation, Vehicle / Internalisation, +GIP / Internalisation, GIP-only: % internalization: residual fluorescence after Mesna vs pre-Mesna; Surface expression: unit not given here; details: Mean
Procedure: as §2

[5] = test system: wild-type and variant SNAP-GIPR; test: Surface SNAP-GIPR expression (SNAP-tag labelling) in AD293 cells; details: for AD293 Surface: Fig S3E, mean; for Surface SNAP-GIPR expression: sheet Fig 1C;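 on all read-outs here: scaled to the experimental average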
Outline: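 Read-out: whole-cell fluorescence of surface-only SNAP label (Alexa Fluor 647, 500 nM, 10 min, RT), wide-field 20X, several FOVs per well. Flat-field corrected, phase-contrast masked, nontransfected-well signal subtracted; normalized to experiment mean or wild-type.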

[6] = test system: wild-type and variant SNAP-GIPR; test: Surface SNAP-GIPR expression (SNAP-tag labelling) in INS-1 cells; details: Fig 4G; Mean
Procedure: Twenty-four hours before the experiment, AD293 or INS-1 cells were reverse transfected with GIPR variant or wild-type plasmids using Lipofectamine 2000 in 96-well, clear-bottom, black microplates precoated with poly-D-lysine. All variants were tested in parallel on each occasion to control for transfection efficiency differences between experiments. Cells were then labeled using the cell-impermeant probe SNAP-Surface Alexa Fluor 647 (500 nM, New England Biolabs, USA) for 10 min at room temperature to label only surface GIPR. […] Several fields of view (FOVs) were acquired within each well using a 20X, 0.75–numerical aperture (NA) air objective. Surface GIPR fluorescence was quantified after flat-field correction using BaSiC ([72]) and segmenting using Phantast ([73]), which generates a mask based on the phase contrast images to demarcate cell versus noncell. Wide-field imaging of the surface-specific labeling achieved by SNAP-Surface probes means that surface expression can be established from whole-cell fluorescence, after subtracting nonspecific fluorescence from a separate well containing nontransfected cells processed in parallel from the same experiment. Data were normalized by dividing by the average specific signal across each experiment, or by the wild-type value, as indicated in the figure legends.

[7] = test system: wild-type and variant SNAP-GIPR; test: cADDis cAMP imaging in AD293 cells, ensemble, expression-matched and per decile; details: Fig S3F, cADDis, mean
Procedure: AD293 cells were reverse transfected with the GIPR variant or wild-type plasmids using Lipofectamine 2000 and cotransduced with the cADDis Green Up BacMam (10 μl per well, Montana Molecular, USA), in 96-well, poly-D-lysine–coated microplates. All variants were tested in parallel on each occasion to control for transfection efficiency differences between experiments. After 24 hours, cells were labeled using 500 nM SNAP-Surface Alexa Fluor 647 for 10 min at room temperature. Cells were washed three times and then imaged in KRBH buffer containing 6 mM glucose and 0.1% BSA. Imaging was performed at 37°C by wide-field microscopy using the same microscope as in the “Assessment of surface GIPR expression by SNAP-tag labeling in cell lines” section, with 9 FOVs for both cADDis and SNAP-Surface fluorescence acquired from each well using a 10X, 0.45 NA air objective. […] Flat-field correction was performed using BaSiC ([72]), drift correction was performed using SIFT, and a maximum intensity projection of the cADDis channel was used to segment individual cells. cAMP responses were determined by quantifying the cADDis fluorescence intensity for each cell at each time point. Nonviable cells or noncell objects were excluded according to criteria for allowable cell IBMX/FSK responses. […] The cADDis mask was then used to quantify the SNAP-Surface signal from each cell. Wild-type SNAP-Surface readings were split into deciles, and these deciles were subsequently used to categorize variant-transfected cells to match against the wild type. After trimming the top and bottom deciles, the mean was taken of each decile mean for surface expression level or cAMP response, which achieved matched expression levels by effectively applying an inverse weighting to counteract differences in cell number in each decile for different variants. Ensemble expression levels or cAMP responses were calculated without regard to deciles. Variant cADDis responses were also analyzed within their own surface expression deciles.

B1: A268V (protein, UniProt P48546 22-466, looked up, variant A268V)
Gastric inhibitory …: RAETGSKGQTAGELYQRWERYRRECQETLAAAEPPSGLACNGSFDMYVCWDYAAPNATARASCPWYLPWHHHVAAGFVLRQCGSDGQWGLWRDHTQCENPEKNEAFLDQRLILERLQVMYTVGYSLSLATLLLALLILSLFRRLHCTRNYIHINLFTSFMLRAAAILSRDRLLPRPGPYLGDQALALWNQALAACRTAQIVTQYCVGANYTWLLVEGVYLHSLLVLVGGSEEGHFRYYLLLGWGAPVLFVIPWVIVRYLYENTQCWERNEVKAIWWIIRTPILMTILINFLIFIRILGILLSKLRTRQMRCRDYRLRLARSTLTLVPLLGVHEVVFAPVTEEQARGALRFAKLGFEIFLSSFQGFLVSVLYCFINKEVQSEIRRGWHHCRLRRSLGEEQRQLPERAFRALPSGSGPGEVPTSRGLSSGTLPGPGNEASRELESYC
AD293 100 pM HTRF ([1]; AD293, 100 pM): 2.332 | AD293 100 nM HTRF ([1]; AD293, 100 nM): 1.283 | INS-1 cAMP (100 nM) [2]: 1.343 | +GIP internalisation (100 nM) ([3]; Fig 4G, GIP 100 nM): 0.6195 | GIP-specific internalisation (100 nM) ([3]; Fig 4G, GIP 100 nM): 0.1687 | Constitutive internalisation (100 nM) ([3]; Fig 4G): 0.4508 | Internalisation, +GIP ([3]; Fig S4C, INS-1): 51.1233 | Internalisation, GIP-only ([3]; Fig S4C, INS-1): 13.9983 | Internalisation, Vehicle ([3]; Fig S4C, INS-1): 37.125 | +GIP internalisation (100 nM) ([4]; Fig 4E, GIP 100 nM): 0.7963 | GIP-specific internalisation (100 nM) ([4]; Fig 4E, GIP 100 nM): 0.2682 | Constitutive internalisation (100 nM) ([4]; Fig 4E): 0.5281 | Surface expression ([4]; Fig 4E): 1.472 | Internalisation, +GIP ([4]; Fig S4C, AD293): 57.341 | Internalisation, GIP-only ([4]; Fig S4C, AD293): 19.4051 | Internalisation, Vehicle ([4]; Fig S4C, AD293): 37.9359 | AD293 Surface ([5]; column repeated, paired with cAMP 100 nM): 1.382 | AD293 Surface ([5]; paired with cAMP 100 pM): 1.382 | Surface SNAP-GIPR expression ([5]; replicate 1): 1.352 | Surface SNAP-GIPR expression ([5]; replicate 2): 1.469 | Surface SNAP-GIPR expression ([5]; replicate 3): 1.684 | Surface SNAP-GIPR expression ([5]; replicate 4): 1.15 | Surface SNAP-GIPR expression ([5]; replicate 5): 1.545 | Surface SNAP-GIPR expression ([5]; replicate 6): 1.48 | Surface SNAP-GIPR expression ([5]; replicate 7): 1.735 | Surface SNAP-GIPR expression ([5]; replicate 8): 0.9896 | Surface SNAP-GIPR expression ([5]; replicate 9): 1.756 | Surface SNAP-GIPR expression ([5]; replicate 10): 1.344 | Surface SNAP-GIPR expression ([5]; replicate 11): 1.392 | Surface SNAP-GIPR expression ([5]; replicate 12): 1.329 | Surface SNAP-GIPR expression ([5]; replicate 13): 1.75 | Surface SNAP-GIPR expression ([5]; replicate 14): 1.057 | Surface SNAP-GIPR expression ([5]; replicate 15): 1.196 | Surface SNAP-GIPR expression ([5]; replicate 16): 1.17 | Surface SNAP-GIPR expression ([5]; replicate 17): 1.366 | Surface SNAP-GIPR expression ([5]; replicate 18): 1.286 | Surface SNAP-GIPR expression ([5]; replicate 19): 1.239 | Surface SNAP-GIPR expression ([5]; replicate 20): 1.203 | Surface SNAP-GIPR expression ([5]; replicate 21): 1.125 | Surface SNAP-GIPR expression ([5]; replicate 22): 1.189 | Surface SNAP-GIPR expression ([5]; replicate 23): 1.374 | Surface SNAP-GIPR expression ([5]; replicate 24): 1.314 | Surface SNAP-GIPR expression ([5]; replicate 25): 1.303 | Surface SNAP-GIPR expression ([5]; replicate 26): 1.296 | Surface SNAP-GIPR expression ([5]; replicate 27): 1.545 | Surface SNAP-GIPR expression ([5]; replicate 28): 1.175 | Surface SNAP-GIPR expression ([5]; replicate 29): 1.642 | Surface SNAP-GIPR expression ([5]; replicate 30): 1.674 | Surface SNAP-GIPR expression ([5]; replicate 31): 1.459 | Surface SNAP-GIPR expression ([5]; replicate 32): 1.555 | Surface SNAP-GIPR expression ([5]; replicate 33): 1.663 | Surface SNAP-GIPR expression ([5]; replicate 34): 1.328 | Surface SNAP-GIPR expression ([5]; replicate 35): 1.277 | Surface SNAP-GIPR expression ([5]; replicate 36): 1.382 | Surface SNAP-GIPR expression ([5]; replicate 37): 1.6 | Surface SNAP-GIPR expression ([5]; replicate 38): 1.461 | Surface SNAP-GIPR expression ([5]; replicate 39): 1.123 | Surface SNAP-GIPR expression ([5]; replicate 40): 1.335 | Surface SNAP-GIPR expression ([5]; replicate 41): 1.367 | Surface expression [6]: 1.2654 | AD293 100 pM cADDis ([7]; AD293, 100 pM): 34.2441 | AD293 100 nM cADDis ([7]; AD293, 100 nM): 37.42
